36 substances from patent EP0811064B1 can be followed below.

Values joined by “and” are separate entries in the source; they are usually repeats but may differ in a detail not shown here. Equal values may be shown once.

The target in the first assay is full length human mpl receptor expressed on 32D-mpl cells (human) (UniProt P40238). The assay is described as follows: cell-based or functional assay.
“mpl ligand analog N13 [Asn^53, Thr^55] mpl ligand 1-174” returned an In Vitro Activity (units/ml) of 18000 units/ml and a Specific Activity (units/ ng) of 269 units/ng.
Taken in the same sequence, the figures for “mpl ligand analog N11 [Ser^36, Asn^38, Thr^40] mpl ligand 1-174” were less than 10 units/ml and less than 8 units/ng.
As to “mpl ligand analog N4 [Asn^30, Thr^32] mpl ligand 1-174”, the IN VITRO ACTIVITY U/mg X10E6 is 6e+07 U/mg, the In Vitro Activity (units/ml) was found to be 8830 units/ml and the Specific Activity (units/ ng) worked out at 232 units/ng.
For the substance “mpl ligand analog N7 [Asn^82, Ala^83] mpl ligand 1-174”, the In Vitro Activity (units/ml) is 2660 units/ml and 3080 units/ml; the Specific Activity (units/ ng) is 443 units/ng and 655 units/ng.
On to human mpl ligand 1-332 (CHO), for which the IN VITRO ACTIVITY U/mg X10E6 worked out at 4.1e+07 U/mg.
The substance Met-Lys-mpl ligand 1-174 (E. coli) showed an IN VITRO ACTIVITY U/mg X10E6 of 1.3e+07 U/mg.
“mpl ligand analog N3 [Asn^25] mpl ligand 1-174”: the In Vitro Activity (units/ml) worked out at 636 units/ml and the Specific Activity (units/ ng) stood at 344 units/ng.
Taken in the same sequence, the figures for “mpl ligand analog N5 [Asn^38, Thr^40] mpl ligand 1-174” were less than 10 units/ml and less than 8 units/ng.
“mpl ligand analog N15 [Asn^30, Thr^32, Asn^120, Thr^122] mpl ligand 1-174” registered an IN VITRO ACTIVITY U/mg X10E6 of 9.2e+07 U/mg, an In Vitro Activity (units/ml) of 6420 units/ml and a Specific Activity (units/ ng) of 247 units/ng.
human mpl ligand 1-163 (CHO) gave an IN VITRO ACTIVITY U/mg X10E6 of 8.6e+07 U/mg.
In the case of “mpl ligand analog N14 [Asn^58, Thr^60] mpl ligand 1-174”, the In Vitro Activity (units/ml) turned out to be 4850 units/ml and the Specific Activity (units/ ng) was found to be 271 units/ng.
For “mpl ligand analog N9 [Asn^92] mpl ligand 1-174”, in that order: 1970 units/ml and 188 units/ng.
“mpl ligand analog N10 [Asn^120, Thr^122] mpl ligand 1-174”: the In Vitro Activity (units/ml) is 5940 units/ml and 9690 units/ml; the Specific Activity (units/ ng) was 291 units/ng and 288 units/ng.
Substance “mpl ligand analog N6 [Asn^86] mpl ligand 1-174” returned an In Vitro Activity (units/ml) of less than 10 units/ml and a Specific Activity (units/ ng) of less than 22 units/ng.

A further assay has the same target. Nature of the assay: cell-based or functional assay. This is another data set of the same source.
As for “mpl ligand analog N39 [Asn^30, Thr^32, Asn^120, Thr^122, Asn^55, Thr^57, Thr^163, Asn^164, Thr^166] mpl ligand 1-174”, the In Vitro Activity (units/ml) stood at 17700 units/ml and the Specific Activity (units/ ng) was 139 units/ng.
For “mpl ligand analog N40 (N4+N10+N36+N38 changes in mpl ligand 1-199)”, in that order: 19700 units/ml and 147 units/ng.
In turn, “mpl ligand analog N22 [Asn^52, Thr^54] mpl ligand 1-174” registered an In Vitro Activity (units/ml) of 856 units/ml and a Specific Activity (units/ ng) of 428 units/ng.
Taken in the same sequence, the figures for “mpl ligand analog N25 [Asn^81, Thr^83] mpl ligand 1-174” were 123 units/ml and 559 units/ng.
Consider mpl ligand 1-191 (N17), for which the In Vitro Activity (units/ml) is 11 units/ml.
The substance “mpl ligand analog N38 [Thr^163, Asn^164, Thr^166] mpl ligand 1-174” returned an In Vitro Activity (units/ml) of 3900 units/ml and a Specific Activity (units/ ng) of 156 units/ng.
Taken in the same sequence, the figures for “mpl ligand analog N18 [Asn^23, Ser^25] mpl ligand 1-174” were 5 units/ml and 2.5 units/ng.
For “mpl ligand analog N26 [Asn^118, Ser^120] mpl ligand 1-174”, in that order: 96 units/ml and 106 units/ng.
Taken in the same sequence, the figures for “mpl ligand analog N30 [Thr^163, Asn^164] mpl ligand 1-174” were 15600 units/ml and 122 units/ng.
“mpl ligand analog N36 [Asn^55, Thr^57] mpl ligand 1-174” had an In Vitro Activity (units/ml) of 5810 units/ml and a Specific Activity (units/ ng) of 121 units/ng.
Taken in the same sequence, the figures for “mpl ligand analog N29 [Asn^30, Ser^32, Asn^120, Ser^122] mpl ligand 1-174” were 1630 units/ml and 108 units/ng.
Substance mpl ligand 1-199 (N31) displayed an In Vitro Activity (units/ml) of 19000 units/ml and a Specific Activity (units/ ng) of 122 units/ng.
Taken in the same sequence, the figures for “mpl ligand analog N35 (N4+N23+N30 changes in mpl ligand 1-199)” were 13100 units/ml and 76 units/ng.
For “mpl ligand analog N23 [Asn^55'(i), Thr^57] mpl ligand 1-174”, in that order: 1060 units/ml and 96 units/ng.
For “mpl ligand analog N15 [Asn^30, Thr^32, Asn^120, Thr^122] mpl ligand 1-174”, in that order: 7000 units/ml and 156 units/ng.
As for “mpl ligand analog N33 [Asn^30, Thr^32, Asn^120, Thr^122, Asn^55'(i), Thr^57] mpl ligand 1-174”, the In Vitro Activity (units/ml) amounted to 10100 units/ml and the Specific Activity (units/ ng) was 129 units/ng.
For “mpl ligand analog N37 [Asn^56] mpl ligand 1-174”, in that order: 4500 units/ml and 141 units/ng.
Taken in the same sequence, the figures for “mpl ligand analog N21 [Asn^54, Ser^56] mpl ligand 1-174” were 4380 units/ml and 146 units/ng.
Taken in the same sequence, the figures for “mpl ligand analog N34 [Asn^30, Thr^32, Asn^55'(i), Thr^57, Thr^163, Asn^164] mpl ligand 1-174” were 13500 units/ml and 120 units/ng.
As to mpl ligand 1-183 (N16), the In Vitro Activity (units/ml) is 9280 units/ml.
In the case of “mpl ligand analog N27 [Asn^119, Ser^121] mpl ligand 1-174”, the In Vitro Activity (units/ml) came to 338 units/ml and the Specific Activity (units/ ng) amounted to 75 units/ng.
Regarding “mpl ligand analog N20 [Asn^39, Ser^41] mpl ligand 1-174”, the In Vitro Activity (units/ml) was less than 10 units/ml.
In turn, “mpl ligand analog N24 [Asn^57, Ser^59] mpl ligand 1-174” had an In Vitro Activity (units/ml) of 458 units/ml and a Specific Activity (units/ ng) of 86 units/ng.
